Data reported in paper PMC2995063.

How the values were obtained:
Experiment in all cases: protection of ribosome-bound eEF2 from [14C]ADP-ribosylation by diphtheria toxin
[1] = target: Salt washed yeast 80S ribosomes with ribosomal protein L3 K236A (yeast (S. cerevisiae)) (UniProt P14126)
[2] = target: Salt washed yeast 80S ribosomes with ribosomal protein L3 K236A/K237A (yeast (S. cerevisiae)) (UniProt P14126)
[3] = target: Salt washed yeast 80S ribosomes with ribosomal protein L3 K236A/R247A (yeast (S. cerevisiae)) (UniProt P14126)
[4] = target: Salt washed yeast 80S ribosomes with ribosomal protein L3 K237A (yeast (S. cerevisiae)) (UniProt P14126)
[5] = target: Salt washed yeast 80S ribosomes with ribosomal protein L3 K241A/R244A (yeast (S. cerevisiae)) (UniProt P14126)
[6] = target: Salt washed yeast 80S ribosomes with ribosomal protein L3 R232A (yeast (S. cerevisiae)) (UniProt P14126)
[7] = target: Salt washed yeast 80S ribosomes with ribosomal protein L3 R247A (yeast (S. cerevisiae)) (UniProt P14126)
[8] = target: Salt washed yeast 80S ribosomes with wild-type ribosomal protein L3 (yeast (S. cerevisiae)) (UniProt P14126)

## Eukaryotic elongation factor 2 (eEF2), 6xHis-tagged (from UniProt P32324 1-842) (natural protein)
[1]
  Kd: 312 nM
[2]
  Kd: 84 nM
[3]
  Kd: 110 nM
[4]
  Kd: 342 nM
[5]
  Kd: 229 nM
[6]
  Kd: 341 nM
[7]
  Kd: 46.6 nM
[8]
  Kd: 383 nM
